Measurements reported in PMC5746516.

Target: Protein phosphatase 1 (PP1) (UniProt P62136)
Assay: co-IP

Sequence of UniProt P62136 (P62136 whole entry): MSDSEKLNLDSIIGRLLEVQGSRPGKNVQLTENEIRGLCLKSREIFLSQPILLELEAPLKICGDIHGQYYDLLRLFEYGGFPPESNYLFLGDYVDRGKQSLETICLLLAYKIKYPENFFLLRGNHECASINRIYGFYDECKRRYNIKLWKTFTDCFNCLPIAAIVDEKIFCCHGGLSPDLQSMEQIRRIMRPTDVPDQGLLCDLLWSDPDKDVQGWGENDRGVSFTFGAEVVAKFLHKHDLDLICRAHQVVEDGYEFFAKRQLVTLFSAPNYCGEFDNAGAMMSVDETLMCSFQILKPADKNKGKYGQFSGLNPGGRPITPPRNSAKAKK

interaction with PP1 by co-IP densitometry, percent of wild type [%]	Binder
28.9	NBCe1-B 3-point mutant (F922A, R925A, and K927A), GFP-tagged (natural protein) MEDEAVLDRGASFLKHVCDEEEVEGHHTIYIGVHVPKSYRRRRRHKRKTGHKEKKEKERISENYSDKSDIENADESSSSILKPLISPAAERIRFILGEEDDSPAPPQLFTELDELLAVDGQEMEWKETARWIKFEEKVEQGGERWSKPHVATLSLHSLFELRTCMEKGSIMLDREASSLPQLVEMIVDHQIETGLLKPELKDKVTYTLLRKHRHQTKKSNLRSLADIGKTVSSASRMFTNPDNGSPAMTHRNLTSSSLNDISDKPEKDQLKNKFMKKLPRDAEASNVLVGEVDFLDTPFIAFVRLQQAVMLGALTEVPVPTRFLFILLGPKGKAKSYHEIGRAIATLMSDEVFHDIAYKAKDRHDLIAGIDEFLDEVIVLPPGEWDPAIRIEPPKSLPSSDKRKNMYSGGENVQMNGDTPHDGGHGGGGHGDCEELQRTGRFCGGLIKDIKRKAPFFASDFYDALNIQALSAILFIYLATVTNAITFGGLLGDATDNMQGVLESFLGTAVSGAIFCLFAGQPLTILSSTGPVLVFERLLFNFSKDNNFDYLEFRLWIGLWSAFLCLILVATDASFLVQYFTRFTEEGFSSLISFIFIYDAFKKMIKLADYYPINSNFKVGYNTLFSCTCVPPDPANISISNDTTLAPEYLPTMSSTDMYHNTTFDWAFLSKKECSKYGGNLVGNNCNFVPDITLMSFILFLGTYTSSMALKKFKTSPYFPTTARKLISDFAIILSILIFCVIDALVGVDTPKLIVPSEFKPTSPNRGWFVPPFGENPWWVCLAAAIPALLVTILIFMDQQITAVIVNRKEHKLKKGAGYHLDLFWVAILMVICSLMALPWYVAATVISIAHIDSLKMETETSAPGEQPKFLGVREQRVTGTLVFILTGLSVFMAPILKFIPMPVLYGVFLYMGVASLNGVQAMDALALLLMPLKHQPDFIYLRHVPLRRVHLFTFLQVLCLALLWILKSTVAAIIFPVMILALVAVRKGMDYLFSQHDLSFLDDVIPEKDKKKKEDEKKKKKKKGSLDSDNDDSDCPYSEKVPSIKIPMDIMEQQPFLSDSKPSDRERSPTFLERHTSC
18.2	NBCe1-B PP1-binding consensus residue deletion mutant (deletion of amino acids 922-927), GFP-tagged (natural protein) MEDEAVLDRGASFLKHVCDEEEVEGHHTIYIGVHVPKSYRRRRRHKRKTGHKEKKEKERISENYSDKSDIENADESSSSILKPLISPAAERIRFILGEEDDSPAPPQLFTELDELLAVDGQEMEWKETARWIKFEEKVEQGGERWSKPHVATLSLHSLFELRTCMEKGSIMLDREASSLPQLVEMIVDHQIETGLLKPELKDKVTYTLLRKHRHQTKKSNLRSLADIGKTVSSASRMFTNPDNGSPAMTHRNLTSSSLNDISDKPEKDQLKNKFMKKLPRDAEASNVLVGEVDFLDTPFIAFVRLQQAVMLGALTEVPVPTRFLFILLGPKGKAKSYHEIGRAIATLMSDEVFHDIAYKAKDRHDLIAGIDEFLDEVIVLPPGEWDPAIRIEPPKSLPSSDKRKNMYSGGENVQMNGDTPHDGGHGGGGHGDCEELQRTGRFCGGLIKDIKRKAPFFASDFYDALNIQALSAILFIYLATVTNAITFGGLLGDATDNMQGVLESFLGTAVSGAIFCLFAGQPLTILSSTGPVLVFERLLFNFSKDNNFDYLEFRLWIGLWSAFLCLILVATDASFLVQYFTRFTEEGFSSLISFIFIYDAFKKMIKLADYYPINSNFKVGYNTLFSCTCVPPDPANISISNDTTLAPEYLPTMSSTDMYHNTTFDWAFLSKKECSKYGGNLVGNNCNFVPDITLMSFILFLGTYTSSMALKKFKTSPYFPTTARKLISDFAIILSILIFCVIDALVGVDTPKLIVPSEFKPTSPNRGWFVPPFGENPWWVCLAAAIPALLVTILIFMDQQITAVIVNRKEHKLKKGAGYHLDLFWVAILMVICSLMALPWYVAATVISIAHIDSLKMETETSAPGEQPKFLGVREQRVTGTLVFILTGLSVFMAPILKFIPMPVLYGVFLYMGVASLNGVQLLLMPLKHQPDFIYLRHVPLRRVHLFTFLQVLCLALLWILKSTVAAIIFPVMILALVAVRKGMDYLFSQHDLSFLDDVIPEKDKKKKEDEKKKKKKKGSLDSDNDDSDCPYSEKVPSIKIPMDIMEQQPFLSDSKPSDRERSPTFLERHTSC
